Source: article PMC12551957, “Human monoclonal antibodies to HPV16 show evidence for common developmental pathways and public epitopes” (PLOS Pathogens, 2025)

Tests used:
[1] = target: soluble HPV16 L1 capsomer (human papillomavirus type 16 (HPV16)); assay: cryo-EM structure
[2] = target: HPV16 L1 (as in the HPV16L1 binding assays and on pseudovirus psV16) (Human papillomavirus type 16; L1 of …, UniProt J3SRV0); assay: cell-based or functional assay
HPV16 L1 (as in the HPV16L1 binding assays and on pseudovirus psV16), sequence (P03101 whole entry): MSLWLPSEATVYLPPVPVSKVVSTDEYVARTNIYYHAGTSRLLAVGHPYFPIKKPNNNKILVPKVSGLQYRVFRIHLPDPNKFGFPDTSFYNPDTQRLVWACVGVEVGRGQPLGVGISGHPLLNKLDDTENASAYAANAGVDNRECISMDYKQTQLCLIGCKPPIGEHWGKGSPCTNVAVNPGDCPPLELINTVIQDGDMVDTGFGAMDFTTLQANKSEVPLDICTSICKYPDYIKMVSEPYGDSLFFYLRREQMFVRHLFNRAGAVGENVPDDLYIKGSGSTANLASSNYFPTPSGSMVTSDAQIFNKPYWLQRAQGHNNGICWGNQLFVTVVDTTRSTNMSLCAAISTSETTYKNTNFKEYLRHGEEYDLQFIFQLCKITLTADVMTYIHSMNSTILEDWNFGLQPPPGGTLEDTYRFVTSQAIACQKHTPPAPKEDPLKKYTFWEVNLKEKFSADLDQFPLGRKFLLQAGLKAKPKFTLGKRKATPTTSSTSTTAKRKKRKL

soluble HPV16 L1 capsomer (complex)
stoichiometry N [1]: 5

B1: D24.1M01 with the germline CDRL2 (YGN) (antibody, V domains shown)
VH: QVTLRESGPALVKPTQTLTLTCTISGLSLTTSGVCVSWIRQPPGKALEWLALIDWDDDKYYSTSLRTRLTISKDISKNQVVLTMTNMDPVDTATFFCARTRCTSNWGYYFDSWGRGTRVTVSS
VL: QSVLTQPPSVSGAPGQRVTISCTGSASNIGAGYDVHWYQQVPGAAPKLLIYGNSNRPSGVPDRISGSKSGTSASLAISGLQAEDEADYYCQSYDDSLRGWVFGGGTKLTVL
psV16 neutralization, fold increase of IC50 against the mature antibody [2]: 5.3 fold
